Measurements published in patent US20080161234A1, “Composition Comprising Lactic Acid and Lactoferrin” (priority 2004, published 2008).

Key:
Assay type in all cases: cell-based
[1] = test system: E. coli 06; assay: Microbicidal microplate-droplet assay, E. coli; set-up: key to E. coli killing, growth grade in droplet assay: +++ means that the number of colony forming units (CFU) contained within 5 ul of a droplet formed a smooth layer of bacteria; ++ means that a “ruffled” area is seen; 0 means that no CFU were found in triplicate samples of 5 ul (>99.95 killed of the inoculum)
Method: (§1) The bacterial strains S. aureus 1800 (CCUG 1800), E. coli 06, and the yeast C. albicans (ATCC 64549) have been used in the microplate assay. All microorganisms were cultured in brain heart infusion medium (BHI) on a shaker over night at 37° C. A volume of the culture was transferred to a new tube with BHI and incubated for two more h on the shaker. The bacteria were harvested in the log phase, washed once and thereafter suspended in the broth used for the microplate assay. The suspension was adjusted spectrophotometrically and diluted to a concentration of approximately 4×10^6 cells per ml at 650 nm. Washed cells were suspended in 0.2% BP (pH 7.0) or BHI medium diluted 1/10 (0.34%, pH 6.7-6.9) (Difco, USA). The concentration of bacterial or fungal cells was spectrophotometrically adjusted. LF or peptide, serially diluted in BHIdil or BP by twofold steps (unless otherwise stated), were added in triplicate to the wells of a microtiterplate (200 ul per well). The bacterial or yeast cell solutions were added in 10 ul volumes to give a final concentration of approximately 2×10^5 cells per ml. The concentration of the stock solution was always checked by viable counts. The microplate was incubated at 37° C. in a humid chamber for 2 h unless otherwise stated. Five ul were taken from each well and added as a drop onto a blood agar plate and incubated over night at 37° C. In some experiments more thorough viable counts were performed and the killing was expressed as remaining colony forming units in relation to the inoculum. The lower limit for detection of microorganisms was 200 CFU/ml. The antimicrobial activity of human LF was analysed by the microbicidal assay described above. Different microbes such as C. albicans, E. coli and S. aureus were analysed with respect to their survival in lactate (not containing the inert gel base, which makes the gel unsuitable for the microbicidal assay) containing LF.

[2] = test system: S. aureus 1800 (CCUG 1800); assay: Microbicidal microplate-droplet assay, S. aureus; set-up: key to S. aureus killing, growth grade in droplet assay: +++ = the number of colony forming units contained within 5 ul of a droplet formed a smooth layer of bacteria.; (+++): (parenthesis = a tendency towards a ruffled area compared with the control).; 0 = no bacteria in triplicate samples of 5 ul (>99.95 killed of the inoculum)
Method: as §1

[3] = test system: L. gasseri; assay: Survival of L. gasseri in lactate with LF; details: LF 2 mg/ml, lactate 1%, 0.34% BHI, CO2, 3 h
Method: L. gasseri and L. jensenii were cultured on chocolate-agar plates for 24 h in 5% CO2/95% air. They were thereafter harvested and added to BHI (0.34%). After washing the bacterial solutions were adjusted spectrophotometrically and diluted to 8×10^6 bacteria/ml.
Washed cells were suspended in 0.2% BP (pH 7.0) or BHI medium diluted 1/10 (0.34%, pH 6.7-6.9) (Difco, USA). The concentration of bacterial or fungal cells was spectrophotometrically adjusted. LF or peptide, serially diluted in BHIdil or BP by twofold steps (unless otherwise stated), were added in triplicate to the wells of a microtiterplate (200 ul per well). The bacterial or yeast cell solutions were added in 10 ul volumes to give a final concentration of approximately 2×10^5 cells per ml. The concentration of the stock solution was always checked by viable counts. The microplate was incubated at 37° C. in a humid chamber for 2 h unless otherwise stated. Five ul were taken from each well and added as a drop onto a blood agar plate and incubated over night at 37° C. In some experiments more thorough viable counts were performed and the killing was expressed as remaining colony forming units in relation to the inoculum. The lower limit for detection of microorganisms was 200 CFU/ml.
L. gasseri survived better in the assay system than did L. jensenii. Undiluted lactate (5%) affected the survival of Lactobacillus.

[4] = test system: G. vaginalis (Gv 14); assay: Growth inhibition of G. vaginalis by LF, spectrophotometric, 20 h anaerobic; details: LF in various concentrations, no lactate, 0.34% BHI
Method: The bacteria were incubated in 0.34% BHI under anaerobic conditions for 20 hours.
(§2) G. vaginalis and P. bivia were cultured on chocolate-GL-plates for 48 h in anaerobic milieu. The bacteria were harvested and suspended in BHI for further incubation (4 hours at 37° C.). The bacteria were washed twice in Bactopeptone (BP, 0.2%). The concentration was adjusted spectrophotometrically and diluted to 1×10^7 bacteria per ml.
(§3) The procedure for the microbicidal assay with regard to G. vaginalis and P. bivia was as described above except that the microplate was incubated under anaerobic conditions (2 h). Thereafter droplets of the solutions were analyzed for viable bacteria on blood agar plates after 48 h of anaerobic incubation at 37° C.
The microbicidal assay was modified in order to obtain survival conditions for G. vaginalis and P. bivia. Instead of 0.2% BP 0.34% BHI was used. The bacterial strains were analyzed with only LF added in various concentrations to the wells (no lactate present). The plate was incubated for 20 hours.

[5] = test system: G. vaginalis; assay: Minimal bactericidal concentration (MBC99) of LF on G. vaginalis strains; details: concentration at which 99% killing was obtained, fivefold serial steps
Method: as §2, §3
Instead of 0.2% BP 0.34% BHI was used. […] The plate was incubated for 20 hours.

[6] = HLF 500 ug/ml, lactate 0.2%, 2 h incubation
[7] = HLF 500 ug/ml, lactate 0.2%, 5 h incubation
[8] = HLF 500 ug/ml, lactate 1%, 2 h incubation
[9] = HLF 500 ug/ml, lactate 1%, 5 h incubation
[10] = HLF 500 ug/ml, lactate 5%, 2 h incubation
[11] = HLF 500 ug/ml, lactate 5%, 5 h incubation
[12] = HLF 500 ug/ml, no lactal, 2 h incubation
[13] = HLF 500 ug/ml, no lactal, 5 h incubation

B1: LF: LF from human milk purchased from Sigma; single chain iron-binding glycoprotein (protein, UniProt P02788 20-710, looked up)
Lactotransferrin: GRRRSVQWCAVSQPEATKCFQWQRNMRKVRGPPVSCIKRDSPIQCIQAIAENRADAVTLDGGFIYEAGLAPYKLRPVAAEVYGTERQPRTHYYAVAVVKKGGSFQLNELQGLKSCHTGLRRTAGWNVPIGTLRPFLNWTGPPEPIEAAVARFFSASCVPGADKGQFPNLCRLCAGTGENKCAFSSQEPYFSYSGAFKCLRDGAGDVAFIRESTVFEDLSDEAERDEYELLCPDNTRKPVDKFKDCHLARVPSHAVVARSVNGKEDAIWNLLRQAQEKFGKDKSPKFQLFGSPSGQKDLLFKDSAIGFSRVPPRIDSGLYLGSGYFTAIQNLRKSEEEVAARRARVVWCAVGEQELRKCNQWSGLSEGSVTCSSASTTEDCIALVLKGEADAMSLDGGYVYTAGKCGLVPVLAENYKSQQSSDPDPNCVDRPVEGYLAVAVVRRSDTSLTWNSVKGKKSCHTAVDRTAGWNIPMGLLFNQTGSCKFDEYFSQSCAPGSDPRSNLCALCIGDEQGENKCVPNSNERYYGYTGAFRCLAENAGDVAFVKDVTVLQNTDGNNNEAWAKDLKLADFALLCLDGKRKPVTEARSCHLAMAPNHAVVSRMDKVERLKQVLLHQQAKFGRNGSDCPDKFCLFQSETKNLLFNDNTECLARLHGKTTYEKYLGPQYVAGITNLKKCSTSPLLEACEFLRK
With B1 the “E. coli killing, growth grade in droplet assay” value (from here on “E. coli killing, growth grade”) [1, 6] was “++”, the “E. coli killing, percentage of bacteria remaining in relation to the inoculum” value [1, 7] was 4% and the “E. coli killing, growth grade” value [1, 8] was “++”. The “E. coli killing, percentage of bacteria remaining in relation to the inoculum” value [1, 9] was 5%, the “E. coli killing, percentage of bacteria remaining in relation to the inoculum” value [1, 10] was 0 (0 means that no CFU were found in triplicate samples of 5 ul (>99.95 killed of the inoculum)) and the “E. coli killing, percentage of bacteria remaining in relation to the inoculum” value [1, 11] was 0 (0 means that no CFU were found in triplicate samples of 5 ul (>99.95 killed of the inoculum)). For the same molecule, the “E. coli killing, growth grade” value [1, 12] was “+++”, the “E. coli killing, growth grade” value [1, 13] was “+++” and the “E. coli killing, percentage of bacteria remaining in relation to the inoculum” value ([1]; HLF 2000 ug/ml, lactate 0.2%, 5 h incubation) was 5%. The “E. coli killing, percentage of bacteria remaining in relation to the inoculum” value ([1]; HLF 2000 ug/ml, lactate 1%, 5 h incubation) was 9%, the “E. coli killing, percentage of bacteria remaining in relation to the inoculum” value ([1]; HLF 2000 ug/ml, lactate 5%, 2 h incubation) was 0 (0 means that no CFU were found in triplicate samples of 5 ul (>99.95 killed of the inoculum)) and the “E. coli killing, percentage of bacteria remaining in relation to the inoculum” value ([1]; HLF 2000 ug/ml, lactate 5%, 5 h incubation) was 0 (0 means that no CFU were found in triplicate samples of 5 ul (>99.95 killed of the inoculum)). For the same molecule, the “E. coli killing, growth grade” value ([1]; HLF 2000 ug/ml, no lactal, 2 h incubation) was “++”, the “E. coli killing, percentage of bacteria remaining in relation to the inoculum” value ([1]; HLF 2000 ug/ml, no lactal, 5 h incubation) was 3% and the “E. coli killing, growth grade” value ([1]; HLF 5000 ug/ml, lactate 0.2%, 2 h incubation) was “++”. For the same molecule, the “E. coli killing, percentage of bacteria remaining in relation to the inoculum” value ([1]; HLF 5000 ug/ml, lactate 0.2%, 5 h incubation) was 0.4%, the “E. coli killing, percentage of bacteria remaining in relation to the inoculum” value ([1]; HLF 5000 ug/ml, lactate 1%, 5 h incubation) was 16% and the “E. coli killing, percentage of bacteria remaining in relation to the inoculum” value ([1]; HLF 5000 ug/ml, lactate 5%, 2 h incubation) was 0 (0 means that no CFU were found in triplicate samples of 5 ul (>99.95 killed of the inoculum)). For the same molecule, the “E. coli killing, percentage of bacteria remaining in relation to the inoculum” value ([1]; HLF 5000 ug/ml, lactate 5%, 5 h incubation) was 0 (0 means that no CFU were found in triplicate samples of 5 ul (>99.95 killed of the inoculum)), the “E. coli killing, growth grade” value ([1]; HLF 5000 ug/ml, no lactal, 2 h incubation) was “++” and the “E. coli killing, percentage of bacteria remaining in relation to the inoculum” value ([1]; HLF 5000 ug/ml, no lactal, 5 h incubation) was 2%. For the same molecule, the “S. aureus killing, percentage of bacteria remaining in relation to the inoculum” value [2, 6] was 0 (0 = no bacteria in triplicate samples of 5 ul (>99.95 killed of the inoculum).), the “S. aureus killing, percentage of bacteria remaining in relation to the inoculum” value [2, 7] was 0 (0 = no bacteria in triplicate samples of 5 ul (>99.95 killed of the inoculum).) and the “S. aureus killing, percentage of bacteria remaining in relation to the inoculum” value [2, 8] was 0 (0 = no bacteria in triplicate samples of 5 ul (>99.95 killed of the inoculum).). For the same molecule, the “S. aureus killing, percentage of bacteria remaining in relation to the inoculum” value [2, 9] was 0 (0 = no bacteria in triplicate samples of 5 ul (>99.95 killed of the inoculum).), the “S. aureus killing, percentage of bacteria remaining in relation to the inoculum” value [2, 10] was 0 (0 = no bacteria in triplicate samples of 5 ul (>99.95 killed of the inoculum).) and the “S. aureus killing, percentage of bacteria remaining in relation to the inoculum” value [2, 11] was 0 (0 = no bacteria in triplicate samples of 5 ul (>99.95 killed of the inoculum).). For the same molecule, the “S. aureus killing, growth grade in droplet assay” value [2, 12] was “(+++)”, the “S. aureus killing, percentage of bacteria remaining in relation to the inoculum” value [2, 13] was 0.3% and the “microbicidal activity against S. aureus, LF compared with rHLF” value ([2]; without lactate, 0.25 and 0.125 mg/ml, 2 h of incubation) was “somewhat more active”. For the same molecule, the “survival of L. gasseri” value [3] was 18%, the “growth inhibition of G. vaginalis” value [4] was “Growth inhibition” and the MBC99 ([5]; G. vaginalis strain code 12) was 500 µg/mL. The MBC99 ([5]; G. vaginalis strain code 17) was >2500 µg/mL, the MBC99 ([5]; G. vaginalis strain code 23) was 1000 µg/mL and the MBC99 ([5]; G. vaginalis strain code 51) was 100 µg/mL. The MBC99 ([5]; G. vaginalis strain code 90) was 4 µg/mL and the MBC99 ([5]; G. vaginalis strain code 96) was 100 to 500 µg/mL.
